As a reminder, the IC50 is the concentration needed to halve the response being measured. Higher therefore signals lower potency.

The values that follow come from article PMC8494430, “Development of a fluorogenic ADAMTS-7 substrate” (Journal of Enzyme Inhibition and Medicinal Chemistry, 2021).

Read-outs that look alike come from different tables or passages of the source.

Series [1] in a line: Appearance of solution upon dilution of peptide in assay buffer (solubility). The note with it: 10 mM DMSO stock diluted in assay buffer. The series is classed as physicochemical. The procedure: The cleavage sites ^193Arg↓Ala^194 and ^195Glu↓Ala^196 were chosen to design the FRET substrate ATS7FP0 (Table 1). This peptide covers residues Ala^188-Ala^198 in LTBP4S and contains a FAM/TAMRA fluorophore/quencher pair. The quencher is covalently linked to the ε amino group of an extra C-terminal lysine residue. Stock solutions were routinely prepared at 10 mM in DMSO and stored at −80 °C. […] This was most likely due to the high content in hydrophobic amino acids of this peptide, which added to the hydrophobicity of the fluorophore/quencher pair. Nevertheless, ATS7FP0 generated fluorescence upon cleavage by ADAMTS-7 (Figure 2(A)). With the aim to improve both solubility and cleavage rate by ADAMTS-7, seven additional peptides were designed using the sequence of ATS7FP0 as a starting point. The N-terminal alanine residue present in ATS7FP0 was removed to generate peptide ATS7FP7 with a reduced aliphatic index (Table 1). […] To assess the effect of a P4′ proline residue on the cleavage rate, peptide ATS7FP7 was modified to generate ATS7FP8. […] Since we also determined that ADAMTS-7 prefers arginine in P1 (Figure 1(D)), we mutated one alanine residue in the parental sequence into arginine with the aim to improve both cleavage rate and hydrophilicity, thus generating peptide ATS7FP3. […]

Series [2] addresses ADAMTS7-T8 (recombinant human ADAMTS-7 construct lacking the C-terminal PLAC domain) (human) (UniProt Q9UKP4).
Series [3] has as its target T1, ADAMTS-7 (Homo sapiens, UniProt Q9UKP4).
T1 construct: the recombinant construct ADAMTS7-T8, which lacks the C-terminal PLAC domain; made in house
T1 sequence (Q9UKP4 237-1631 limits assumed): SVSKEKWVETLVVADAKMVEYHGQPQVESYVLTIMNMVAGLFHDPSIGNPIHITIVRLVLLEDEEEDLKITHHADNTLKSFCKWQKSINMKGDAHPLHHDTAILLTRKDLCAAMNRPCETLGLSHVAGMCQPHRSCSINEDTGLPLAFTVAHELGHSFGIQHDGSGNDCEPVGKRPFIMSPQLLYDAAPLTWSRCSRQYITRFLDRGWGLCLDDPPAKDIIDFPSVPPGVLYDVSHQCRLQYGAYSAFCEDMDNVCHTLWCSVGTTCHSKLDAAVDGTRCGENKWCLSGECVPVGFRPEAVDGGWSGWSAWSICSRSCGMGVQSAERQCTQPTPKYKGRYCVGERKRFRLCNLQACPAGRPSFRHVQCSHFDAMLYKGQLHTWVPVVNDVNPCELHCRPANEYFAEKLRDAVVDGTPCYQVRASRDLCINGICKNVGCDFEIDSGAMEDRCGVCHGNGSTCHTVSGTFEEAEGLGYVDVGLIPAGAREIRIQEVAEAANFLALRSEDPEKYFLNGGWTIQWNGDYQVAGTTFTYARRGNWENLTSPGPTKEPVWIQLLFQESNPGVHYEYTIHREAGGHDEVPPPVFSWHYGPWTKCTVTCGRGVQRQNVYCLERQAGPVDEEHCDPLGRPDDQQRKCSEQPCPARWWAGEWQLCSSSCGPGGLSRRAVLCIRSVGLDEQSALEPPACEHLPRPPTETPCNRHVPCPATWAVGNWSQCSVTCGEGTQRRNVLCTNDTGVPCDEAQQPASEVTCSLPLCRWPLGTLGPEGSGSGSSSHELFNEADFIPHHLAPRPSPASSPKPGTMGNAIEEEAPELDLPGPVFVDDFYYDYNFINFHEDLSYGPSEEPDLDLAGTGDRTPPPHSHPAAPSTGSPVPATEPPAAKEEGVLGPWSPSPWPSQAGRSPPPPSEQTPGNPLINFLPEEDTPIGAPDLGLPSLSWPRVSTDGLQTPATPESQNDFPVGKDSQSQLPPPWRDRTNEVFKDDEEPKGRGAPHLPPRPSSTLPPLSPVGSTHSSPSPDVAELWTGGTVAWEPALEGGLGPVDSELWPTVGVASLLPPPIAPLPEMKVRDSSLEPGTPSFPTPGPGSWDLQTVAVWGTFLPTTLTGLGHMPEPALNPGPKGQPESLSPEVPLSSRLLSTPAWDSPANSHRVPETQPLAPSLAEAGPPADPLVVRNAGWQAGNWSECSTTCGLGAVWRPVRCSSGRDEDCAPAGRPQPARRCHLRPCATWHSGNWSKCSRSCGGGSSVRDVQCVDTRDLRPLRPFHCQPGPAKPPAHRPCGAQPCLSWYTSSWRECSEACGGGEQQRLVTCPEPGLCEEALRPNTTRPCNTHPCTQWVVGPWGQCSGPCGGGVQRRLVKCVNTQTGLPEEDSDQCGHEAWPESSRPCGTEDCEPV
The series can be described thus: Inhibition of ADAMTS-7 cleavage of FRET substrate ATS7FP7. The series is classed as biochemical. The procedure: All enzyme assays were conducted in TNC-B buffer (50 mM Tris- HCl, pH 7.5, 150 mM NaCl, 10 mM CaCl2, and 0.02% NaN3) at 37 °C in 384 well plates (Cat. No: 784900, Greiner Bio-One, Austria). To avoid the formation of inhibitor or peptide aggregates, the detergent Brij-35 (0.05%) was added to TNC-B[13]. For inhibition studies, stock solutions of chemical compounds were prepared in dimethyl sulfoxide (DMSO) (10 mM). […] Blank samples were prepared using buffer only and the rate of cleavage for blank reactions was subtracted from the rates measured in the presence of enzyme. Upon addition of the indicated ADAMTS-7 FRET substrates (40 µM), the fluorescence was measured immediately using a FLUOstar Omega microplate reader (BMG Labtech, Germany) with an excitation filter wavelength of 485 nm and an emission filter wavelength of 520 nm.

In series [4] the target is T1, ADAMTS-7. The conditions noted are these: read-out: Ki app for inhibition of cleavage of LTBP4; cited from earlier work.
For series [5], the target named is ADAMTS7-T8 (recombinant human ADAMTS-7 construct lacking the C-terminal PLAC domain) (human) (UniProt Q9UKP4). The series is described as follows: enzyme inhibition assay (cleavage of a FRET peptide); ADAMTS-7 (5 nM) pre-incubated 1 h at 37 °C with TIMP-4, then ATS7FP7 (40 µM) added; TNC-B buffer (50 mM Tris-HCl pH 7.5, 150 mM NaCl, 10 mM CaCl2, 0.02% NaN3) with 0.05% Brij-35; 384 well plates; apparent Ki from the Morrison equation for tight binding inhibitors.
Sequence of ADAMTS7-T8 (recombinant human ADAMTS-7 construct lacking the C-terminal PLAC domain) (human) (Q9UKP4 28-1686): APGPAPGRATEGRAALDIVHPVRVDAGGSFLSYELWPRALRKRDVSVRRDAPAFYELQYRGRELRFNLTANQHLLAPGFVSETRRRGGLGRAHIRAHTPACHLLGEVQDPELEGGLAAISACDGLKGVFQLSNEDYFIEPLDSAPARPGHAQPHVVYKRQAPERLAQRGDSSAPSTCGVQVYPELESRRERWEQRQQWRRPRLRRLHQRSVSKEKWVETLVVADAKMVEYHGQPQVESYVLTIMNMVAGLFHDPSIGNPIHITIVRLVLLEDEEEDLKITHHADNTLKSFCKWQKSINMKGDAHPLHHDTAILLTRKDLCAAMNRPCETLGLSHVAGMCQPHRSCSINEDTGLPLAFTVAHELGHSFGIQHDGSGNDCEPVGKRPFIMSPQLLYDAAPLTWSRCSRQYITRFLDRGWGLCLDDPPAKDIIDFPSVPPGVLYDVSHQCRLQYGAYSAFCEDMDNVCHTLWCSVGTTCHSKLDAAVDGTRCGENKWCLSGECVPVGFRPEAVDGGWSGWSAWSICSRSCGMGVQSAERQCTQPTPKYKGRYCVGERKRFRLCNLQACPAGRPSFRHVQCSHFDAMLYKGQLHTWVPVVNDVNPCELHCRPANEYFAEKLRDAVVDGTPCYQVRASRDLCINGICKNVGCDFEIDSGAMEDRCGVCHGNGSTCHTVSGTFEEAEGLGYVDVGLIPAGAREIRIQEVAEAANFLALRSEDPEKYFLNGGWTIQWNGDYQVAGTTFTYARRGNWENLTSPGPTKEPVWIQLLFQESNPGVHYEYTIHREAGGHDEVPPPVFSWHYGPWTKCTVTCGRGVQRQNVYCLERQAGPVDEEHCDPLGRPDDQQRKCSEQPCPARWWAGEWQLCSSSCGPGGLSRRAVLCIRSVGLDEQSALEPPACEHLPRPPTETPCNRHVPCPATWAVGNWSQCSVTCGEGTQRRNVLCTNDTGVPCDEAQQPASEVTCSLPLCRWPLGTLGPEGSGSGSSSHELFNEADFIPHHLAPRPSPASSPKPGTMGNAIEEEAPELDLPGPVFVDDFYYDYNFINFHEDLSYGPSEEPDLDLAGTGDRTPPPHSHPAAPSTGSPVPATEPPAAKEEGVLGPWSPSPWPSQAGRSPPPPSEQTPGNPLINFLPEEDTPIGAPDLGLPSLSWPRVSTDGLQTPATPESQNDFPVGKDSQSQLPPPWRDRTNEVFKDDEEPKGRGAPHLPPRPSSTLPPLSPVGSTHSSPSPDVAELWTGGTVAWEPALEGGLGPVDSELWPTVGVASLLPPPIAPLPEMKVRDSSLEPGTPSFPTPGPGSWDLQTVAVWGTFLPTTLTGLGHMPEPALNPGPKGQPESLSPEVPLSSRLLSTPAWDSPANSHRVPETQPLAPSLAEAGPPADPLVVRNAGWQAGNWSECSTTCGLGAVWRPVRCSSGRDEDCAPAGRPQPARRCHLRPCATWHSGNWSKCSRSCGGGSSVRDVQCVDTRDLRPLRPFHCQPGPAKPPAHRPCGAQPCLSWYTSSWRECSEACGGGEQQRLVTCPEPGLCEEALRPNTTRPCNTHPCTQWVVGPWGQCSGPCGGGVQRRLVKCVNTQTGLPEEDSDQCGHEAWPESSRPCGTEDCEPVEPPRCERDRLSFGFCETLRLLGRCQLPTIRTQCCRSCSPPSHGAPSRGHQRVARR

On to “Ala-Glu-Ala-Ala-Ala-Arg↓Ala-Glu↓Ala-Ala-Ala-Lys [ATS7FP0]”, for which the “appearance of solution upon dilution in the assay buffer (solubility)” value in series [1] is on record as “non-homogenous”.

B1: Recombinant human tissue inhibitor of metalloproteinase (TIMP)-4 (natural protein)
chain: CSCAPAHPQQHICHSALVIRAKISSEKVVPASADPADTEKMLRYEIKQIKMFKGFEKVKDVQYIYTPFDSSLCGVKLEANSQKQYLLTGQVLSDGKVFIHLCNYIEPWEDLSLVQRESLNHHYHLNCGCQITTCYTVPCTISAPNECLWTDWLLERKLYGYQAQHYVCMKHVDGTCSWYRGHLPLRKEFVDIVQP
Consider B1, for which the IC50 of inhibition of ADAMTS-7 cleavage of the FRET peptide substrate ATS7FP7 in series [2] was determined as 18 nM. Further, the Ki in the series with ADAMTS-7 [3] (5 nM ADAMTS-7, Morrison equation for tight binding inhibitors, read-out: Ki app (ATS7FP7 substrate)) was 3.2 ± 1 nM; with ADAMTS-7 [4], 13 nM; in series [5], 3.2 nM. In addition, half-maximal inhibition with ADAMTS-7 [3] (ATS7FP7 40 μM, 1 h preincubation, 37 °C) (IC50) was put at 18 ± 6 nM.
